{"source": "patent US20240262905A1", "about": "(PANDION OPERATIONS, published 2024)", "binders": {"B1": {"name": "IL2DSGAB4 (other)", "heavy": "QVQLVQSGGGVVQSGRSLRLSCAASGFTFSDYAMHWVRQAPGKGLEWVAVISHGGTKKYTGDSVKGRFIISRDNSKNTVFLQMNSLRVEDTAVYYCARDRVEGYVWGGTFDHWGQGTPVTVSSASTKGPSVFPLAPSSKSTSGGTAALGCLVKDYFPEPVTVSWNSGALTSGVHTFPAVLQSSGLYSLSSVVTVPSSSLGTQTYICNVNHKPSNTKVDKKVEPKSCDKTHTCPPCPAPEAAGAPSVFLFPPKPKDTLMISRTPEVTCVVVDVSHEDPEVKFNWYVDGVEVHNAKTKPREEQYNSTYRVVSVLTVLHQDWLNGKEYKCKVSNKALPAPIEKTISKAKGQPREPQVYTLPPSREEMTKNQVSLTCLVKGFYPSDIAVEWESNGQPENNYKTTPPVLDSDGSFFLYSKLTVDKSRWQQGNVFSCSVMHEALHNHYTQKSLSLSPGGGGGSAPTSSSTKKTQLQLEHLLLDLQMILNGINNYKNPKLTRMLTFKFYMPKKATELKHLQCLEEELKPLEEALNLAPSKNFHLRPRDLISDINVIVLELKGSETTFMCEYADETATIVEFINRWITFSQSIISTLT", "light": "ELVLTQPPSVPVAPGQTANISCGGNNIGRQTVHWYQQKPGQAPVLVVFDDSDRPAGIPERFSGSNSGNTATLTISRVEAGDEADYYCQVWDSSSDHVVFGGGTQLTVLGQPKAAPSVTLFPPSSEELQANKATLVCLISDFYPGAVTVAWKADSSPVKAGVETTTPSKQSNNKYAASSYLSLTPEQWKSHRSYSCQVTHEGSTVEKTVAPTECS", "notes": "SD4 anti-desmoglein human IgG1 with the IL-2 mutein fused to the C-terminus of the heavy chain; copies: 2 + 2"}, "B2": {"name": "IL2DSGAB3 (other)", "heavy": "EVQLVESGGGLVQPGRSLRLSCAASGFTFDDYAMHWVRQAPGKGLEWVSGISWNSGSIDYADSVKGRFTISRDNAKNSLYLQMNSLRVEDTALYYCAKDGSRVFGVGGGFDFWGQGTMVTVSSASTKGPSVFPLAPSSKSTSGGTAALGCLVKDYFPEPVTVSWNSGALTSGVHTFPAVLQSSGLYSLSSVVTVPSSSLGTQTYICNVNHKPSNTKVDKKVEPKSCDKTHTCPPCPAPEAAGAPSVFLFPPKPKDTLMISRTPEVTCVVVDVSHEDPEVKFNWYVDGVEVHNAKTKPREEQYNSTYRVVSVLTVLHQDWLNGKEYKCKVSNKALPAPIEKTISKAKGQPREPQVYTLPPSREEMTKNQVSLTCLVKGFYPSDIAVEWESNGQPENNYKTTPPVLDSDGSFFLYSKLTVDKSRWQQGNVFSCSVMHEALHNHYTQKSLSLSPGGGGGSAPTSSSTKKTQLQLEHLLLDLQMILNGINNYKNPKLTRMLTFKFYMPKKATELKHLQCLEEELKPLEEALNLAPSKNFHLRPRDLISDINVIVLELKGSETTFMCEYADETATIVEFINRWITFSQSIISTLT", "light": "not shown", "notes": "SD3 anti-desmoglein human IgG1 with the IL-2 mutein fused to the C-terminus of the heavy chain; copies: 2 + 2"}, "B3": {"name": "PD1DSGAB4 (bispecific antibody, human IgG1, kappa)", "heavy": "QVQLVQSGAEVKKPGASVKVSCKASGYSFTTYYMHWVRQAPGQGLEWMGIINPSGGSTSYAQKFQGRVTMTRDTSTSTVYMELSSLRSEDTAVYYCASGWVYWGQGTLVTVSSASTKGPSVFPLAPSSKSTSGGTAALGCLVKDYFPEPVTVSWNSGALTSGVHTFPAVLQSSGLYSLSSVVTVPSSSLGTQTYICNVNHKPSNTKVDKKVEPKSCDKTHTCPPCPAPEAAGAPSVFLFPPKPKDTLMISRTPEVTCVVVDVSHEDPEVKFNWYVDGVEVHNAKTKPREEQYNSTYRVVSVLTVLHQDWLNGKEYKCKVSNKALPAPIEKTISKAKGQPREPQVYTLPPSREEMTKNQVSLTCLVKGFYPSDIAVEWESNGQPENNYKTTPPVLDSDGSFFLYSKLTVDKSRWQQGNVFSCSVMHEALHNHYTQKSLSLSPGGGGGSGGGGSGGGGSELVLTQPPSVPVAPGQTANISCGGNNIGRQTVHWYQQKPGQAPVLVVFDDSDRPAGIPERFSGSNSGNTATLTISRVEAGDEADYYCQVWDSSSDHVVFGGGTQLTVLGGGGSGGGGSGGGGSGGGGSQVQLVQSGGGVVQSGRSLRLSCAASGFTFSDYAMHWVRQAPGKGLEWVAVISHGGTKKYTGDSVKGRFIISRDNSKNTVFLQMNSLRVEDTAVYYCARDRVEGYVWGGTFDHWGQGTPVTVSS", "light": "not shown", "notes": "Anti-PD-1 agonist human IgG1 with an SD4 anti-desmoglein scFv at the C-terminus of each heavy chain; copies: 2 + 2"}}, "key": {"Insulin": {"target": "T1, Insulin", "T1 construct": "Plate coat in the polyreactivity ELISA", "assay": "ELISA, plate coated with insulin 5 ug/mL, test article at 100 nM, anti-human Fc-HRP detection", "protocol": "Non-specific DNA and Insulin binding (a measure of polyreactivity), which may be predictive of poor PK, was measured. An immunosorbent plate was coated with dsDNA at a concentration of 1 μg/mL or Insulin at 5 μg/mL in PBS pH 7.4 and incubated overnight at 4° C. Wells were washed with PBS pH 7.4 containing 0.05% Tween-20 (wash buffer) three times, and then blocked with 1% BSA in PBS pH 7.4 (block buffer) for two hours at room temperature. […] The diluted material was added to the DNA/insulin coated plate for 1 hour at room temperature. After three washes with wash buffer, a donkey anti-human FcY HRP conjugated polyclonal antibody, diluted to 1:5000 in assay buffer, was added to the plate for 1 hr at room temperature. After three washes with wash buffer and three washes with wash buffer (with no tween-20), the assay was developed with TMB, and stopped with 1N HCL. OD 450 nm was measured."}, "human DSG-3 [1]": {"target": "T2, human DSG-3 (human, UniProt P32926 50-615, limits assumed)", "T2 construct": "Soluble analyte (Octet) and plate coat (ELISA); also called hDSG-3", "T2 sequence (looked up)": "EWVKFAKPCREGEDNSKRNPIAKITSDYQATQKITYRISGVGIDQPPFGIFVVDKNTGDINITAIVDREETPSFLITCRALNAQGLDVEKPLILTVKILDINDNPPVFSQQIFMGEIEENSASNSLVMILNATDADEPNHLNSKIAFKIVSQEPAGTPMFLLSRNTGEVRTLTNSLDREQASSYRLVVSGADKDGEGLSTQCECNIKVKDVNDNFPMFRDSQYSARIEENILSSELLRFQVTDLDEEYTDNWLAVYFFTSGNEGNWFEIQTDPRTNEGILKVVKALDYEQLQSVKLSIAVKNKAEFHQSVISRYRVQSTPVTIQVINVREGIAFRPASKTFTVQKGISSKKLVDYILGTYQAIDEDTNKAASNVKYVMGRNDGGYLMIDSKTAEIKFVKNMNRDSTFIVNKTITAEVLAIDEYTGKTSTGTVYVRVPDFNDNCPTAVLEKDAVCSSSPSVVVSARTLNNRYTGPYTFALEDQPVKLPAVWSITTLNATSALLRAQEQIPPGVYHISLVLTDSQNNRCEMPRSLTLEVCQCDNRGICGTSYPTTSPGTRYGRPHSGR", "assay": "bridging ELISA, plate coated with hDSG-3, test article at 1 nM, then his-tagged hCD25 1 ug/mL, anti-His-HRP detection", "protocol": "(§1) An immunosorbent plate was coated with dsDNA at a concentration of 1 μg/mL hDSG-3 in PBS pH 7.4 and incubated overnight at 4° C. Wells were washed with PBS pH 7.4 containing 0.05% Tween-20 (wash buffer) three times, and then blocked with 6% milk in PBS pH 7.4 (block buffer) for two hours at room temperature. After three washes with wash buffer, 1 nM, 10 nM, and 100 nM of the test articles in assay buffer (PBS, pH 7.4 containing 1% BSA and 0.05% Tween-20) was added and incubated for 1 hr. After three washes with wash buffer 1 μg/mL of his-tagged hCD25 was added and incubated for 1 hr. Detected with anti anti-His-HRP conjugated antibody (1:10,000 dilution)."}, "human DSG-3 [2]": {"target": "T2, human DSG-3", "assay": "bridging ELISA, plate coated with hDSG-3, test article at 10 nM, then his-tagged hCD25 1 ug/mL, anti-His-HRP detection", "protocol": "as §1"}, "human DSG-3 [3]": {"target": "T2, human DSG-3", "assay": "bridging ELISA, plate coated with hDSG-3, test article at 100 nM, then his-tagged hCD25 1 ug/mL, anti-His-HRP detection", "protocol": "as §1"}, "human PD-1": {"target": "T3, human PD-1 (human, UniProt Q15116 25-167)", "T3 construct": "Soluble analyte in the Octet assay", "T3 sequence (Q15116 25-167 limits assumed)": "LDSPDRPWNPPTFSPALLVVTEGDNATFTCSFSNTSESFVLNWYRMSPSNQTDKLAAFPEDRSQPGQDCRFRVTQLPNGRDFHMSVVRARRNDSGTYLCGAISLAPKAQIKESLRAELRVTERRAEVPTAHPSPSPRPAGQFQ", "assay": "BLI (Octet), test article captured on anti-human Fc biosensors, human PD-1 as analyte, 1:1 global fit", "protocol": "Affinity of the PD-1 effector arm to human PD-1 was measured using anti-human Fc biosensors. Said anti-human Fc biosensors were equilibrated in assay buffer (PBS, pH 7.4 with 1% BSA, and 0.05% Tween-20) for 30 minutes before the experiment was set-up. […] A two-fold, seven-point dilution of human PD-1 (starting at 500 nM as the highest concentration) was made. Test articles were captured using anti-human Fc biosensors for 180 s. Biosensors loaded with test articles were equilibrated in assay buffer for 120 s; association was performed for 180 seconds and dissociation was performed for 300 s. Kinetic parameters (kon and kdis) and dissociation constant (KD) were calculated from a 1:1 global fit model using the data analysis software of the Octet96 RED software version 10."}}, "data": [{"binder": "B1", "values": [{"measurement": "Insulin polyreactivity score", "setting": "Insulin", "value": 3.1}, {"measurement": "absorbance (OD450 nm)", "setting": "human DSG-3 [1]", "value": 0.194}, {"measurement": "absorbance (OD450 nm)", "setting": "human DSG-3 [2]", "value": 0.545}, {"measurement": "absorbance (OD450 nm)", "setting": "human DSG-3 [3]", "value": 1.16}]}, {"binder": "B2", "values": [{"measurement": "Insulin polyreactivity score", "setting": "Insulin", "value": 2.9}, {"measurement": "absorbance (OD450 nm)", "setting": "human DSG-3 [1]", "value": 0.508}, {"measurement": "absorbance (OD450 nm)", "setting": "human DSG-3 [2]", "value": 0.628}, {"measurement": "absorbance (OD450 nm)", "setting": "human DSG-3 [3]", "value": 0.756}]}, {"binder": "B3", "values": [{"measurement": "Kd", "setting": "human PD-1", "value": 243, "unit": "nM"}]}]}
